T1: ST2 on the effector cells (KU812, KU812/NF-κB-1#, HUVEC, HMC-1) (human, UniProt Q01638 19-556)
T1 sequence (looked up): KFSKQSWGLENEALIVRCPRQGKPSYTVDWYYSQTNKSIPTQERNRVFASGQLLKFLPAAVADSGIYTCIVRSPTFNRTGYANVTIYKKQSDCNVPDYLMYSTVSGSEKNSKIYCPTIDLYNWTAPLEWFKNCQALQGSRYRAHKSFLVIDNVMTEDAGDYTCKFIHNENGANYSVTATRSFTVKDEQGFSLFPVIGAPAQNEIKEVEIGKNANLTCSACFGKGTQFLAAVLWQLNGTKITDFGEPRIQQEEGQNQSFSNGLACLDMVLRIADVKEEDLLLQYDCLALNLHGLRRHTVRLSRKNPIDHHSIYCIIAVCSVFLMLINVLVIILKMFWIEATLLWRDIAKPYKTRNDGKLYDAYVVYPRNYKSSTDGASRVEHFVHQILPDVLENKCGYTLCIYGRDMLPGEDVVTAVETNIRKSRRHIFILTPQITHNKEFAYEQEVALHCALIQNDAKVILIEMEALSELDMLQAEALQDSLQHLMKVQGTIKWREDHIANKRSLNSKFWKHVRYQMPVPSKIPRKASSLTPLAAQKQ

T2: Human ST2-his (human, UniProt Q01638-2 19-328, limits assumed)
T2 construct: Expressed in CHO-K1; The printed range starts at Met1; also called human ST2 fused with a 6-histidine tag at the C-terminus
T2 sequence: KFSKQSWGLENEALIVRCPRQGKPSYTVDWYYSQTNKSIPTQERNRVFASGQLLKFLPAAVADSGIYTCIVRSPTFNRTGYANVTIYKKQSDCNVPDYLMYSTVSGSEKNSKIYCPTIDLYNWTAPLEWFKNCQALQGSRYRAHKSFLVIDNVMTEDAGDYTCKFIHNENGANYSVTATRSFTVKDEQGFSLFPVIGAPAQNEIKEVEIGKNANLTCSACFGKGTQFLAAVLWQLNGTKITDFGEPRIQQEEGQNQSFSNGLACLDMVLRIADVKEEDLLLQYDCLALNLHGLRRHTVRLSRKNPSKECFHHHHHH


Tests used:
[1] = target: Human ST2-fc (human) (UniProt Q01638); assay: competition ELISA, coated ST2-fc, competitor IL33-his
[2] = target: T1, ST2 on the effector cells (KU812, …); assay: cell-based or functional assay
[3] = target: T1, ST2 on the effector cells (KU812, …); assay: cell-based or functional assay; remark: listed apart in the source
[4] = target: T2, Human ST2-his; assay: SPR Biacore X100, antibody captured on protein A chip, human ST2-his injected, pH 7.4
Protocol: The experiment on the interaction between the anti-human ST2 antibodies and human ST2-his was performed using Biacore X100.
Each anti-human ST2 antibody was diluted to 2 µg/mL and captured on the surface of a protein A chip for a capture time of 60 s. Following the antibody capture, a solution of human ST2-his (2-fold gradient dilution from a starting concentration of 20 nM, to obtain 6 concentrations in total) was injected. Association was monitored for 180 s and dissociation was monitored for 700 s, and the sensor surface was regenerated by injecting a solution of glycine at pH 2.0. Kinetic data were analyzed using a simple 1:1 binding model.

| IC50 [1] | Maximum inhibition rate [1] | Relative activity compared with CNTO7160 [1] | Binder | other results |
| --- | --- | --- | --- | --- |
| 0.488 µg/mL | 90.5% | 180% | 5888-379-H0L0 (antibody, human IgG4 S228P, kappa, V domains shown) VH: QVQLVQSGAEVKKPGASVKVSCKASGYTFINYGMNWVRQAPGQRLEWMGWINTYIGEPTYGDNFKGRVTITRDTSASTAYMELSSLRSEDTAVYYCAREGDGFAYWGQGTLVTVSS VL: DIQMTQSPSSLSASVGDRVTITCKSSQSLLYSGNQNNYLAWYQQKPGKVPKLLIYGASTRESGVPSRFSGSGSGTDFTLTISSLQPEDVATYYCQNDHSYPYTFGGGTKVEIKR | – |
| 0.317 µg/mL | 89.5% | 276% | 5888-379-H1L1 (antibody, human IgG4 S228P, kappa, V domains shown) VH: QVQLVQSGAEVKKPGASVKVSCKASGYTFINYGMNWVRQAPGQRLEWMGWINTYIGEPTYGDNFKGRVTITRDTSASTAYMELSSLRSEDTAVYYCAREGEGFAYWGQGTLVTVSS VL: DIQMTQSPSSLSASVGDRVTITCKSSQSLLYSGNQNNYLAWYQQKPGKVPKLLIYGASTRESGVPSRFSGSGSGTDFTLTISSLQPEDLATYYCQNDHSYPYTFGGGTKVEIKR | – |
| 2.57 µg/mL | 92.9% | 44.3% | 5888-153-H0L0 (antibody, human IgG4 S228P, kappa, V domains shown) VH: QVQLVQSGAEVKKPGASVKVSCKASGYTFTDYELHWVRQAPGQGLEWMGTIDPETGDTVYNQKFKARVTMTRDTSTSTVYMELSSLRSEDTAVYYCARAFYNDYDDGFAYWGQGTLVTVSS VL: EIVLTQSPATLSLSPGERATLSCSVSSSVSYMHWYQQKPGQAPRLLIYDTSKLASGIPARFSGSGSGTDFTLTISSLEPEDFAVYYCQQWNSSPLTFGGGTKVEIKR | – |
| 0.474 µg/mL | 93.5% | 240% | 5888-153-H0L2 (antibody, human IgG4 S228P, kappa, V domains shown) VH: QVQLVQSGAEVKKPGASVKVSCKASGYTFTDYELHWVRQAPGQGLEWMGTIDPETGDTVYNQKFKARVTMTRDTSTSTVYMELSSLRSEDTAVYYCARAFYNDYDDGFAYWGQGTLVTVSS VL: EIVMTQSPATLSLSPGERATLSCSVSSSVSYMHWYQQKPGQAPRRLIYDTSKLASGIPARFSGSGSGTDYTLTISSLEPEDAAVYYCQQWNTSPLTFGGGTKVEIKR | – |
| 0.486 µg/mL | 94.9% | 219% | 5888-116-H1L1 (antibody, human IgG4 S228P, kappa, V domains shown) VH: QVQLVQSGAEVKKPGASVKVSCKASGYTFTDSEMYWVRQAPGQGLEWMGAIDPETGDTAFNQKFKGRVTMTADKSTSTAYMELSSLRSEDTAVYYCTRAFDNDNDDGFAYWGQGTMVTVSS VL: DIQMTQSPSSLSASVGDRVTITCSASSSVNYMHWYQQKPGKAPKRLIYDTSKLASGVPSRFSGSGSGTDYTFTISSLQPEDAATYYCQQWSSNPLTFGQGTKLEIKR | – |
| 1.32 µg/mL | 92.5% | 86.2% | 5888-153-H1L0 (antibody, human IgG4 S228P, kappa, V domains shown) VH: QVQLVQSGAEVKKPGASVKVSCKASGYTFTDYELHWVRQAPGQGLEWMGTIDPETGDTVYNQKFKARVTMTADKSTSTAYMELSSLRSEDTAVYYCTRAFYNDYDDGFAYWGQGTLVTVSS VL: EIVLTQSPATLSLSPGERATLSCSVSSSVSYMHWYQQKPGQAPRLLIYDTSKLASGIPARFSGSGSGTDFTLTISSLEPEDFAVYYCQQWNSSPLTFGGGTKVEIKR | – |
| 0.852 µg/mL | 94% | 134% | 5888-153-H1L2 (antibody, human IgG4 S228P, kappa, V domains shown) VH: QVQLVQSGAEVKKPGASVKVSCKASGYTFTDYELHWVRQAPGQGLEWMGTIDPETGDTVYNQKFKARVTMTADKSTSTAYMELSSLRSEDTAVYYCTRAFYNDYDDGFAYWGQGTLVTVSS VL: EIVMTQSPATLSLSPGERATLSCSVSSSVSYMHWYQQKPGQAPRRLIYDTSKLASGIPARFSGSGSGTDYTLTISSLEPEDAAVYYCQQWNTSPLTFGGGTKVEIKR | IC50, inhibition of activation of KU812-NF-κB reporter gene by IL33 [2]: 0.0441 µg/mL; Maximum inhibition rate, KU812-NF-κB reporter gene [2]: 85%; Relative activity compared with CNTO7160, KU812-NF-κB reporter gene [2]: 454% |
| 0.49 µg/mL | 93.2% | 257% | 5888-357-H1L1 (antibody, human IgG4 S228P, kappa, V domains shown) VH: QVQLVQSGAEVKKPGASVKVSCKASGYRFTDSEMHWVRQAPGQGLEWMGTIDPETGGTVYNQKFKGRVTMTADRSTSTVYMELSSLRSEDTAVYYCTRAFYNDFDDGFAYWGQGTMVTVSS VL: EIVMTQSPATLSLSPGERATLSCSASTSVSYMHWYQQKPGQAPRRLIYDTSKLASGIPARFSGSGSGTDYTLTISSLEPEDAAVYYCQQWSSNPLTFGGGTKVEIKR | – |
| 0.624 µg/mL | 93.8% | 183% | 5888-153-H1L1 (antibody, human IgG4 S228P, kappa, V domains shown) VH: QVQLVQSGAEVKKPGASVKVSCKASGYTFTDYELHWVRQAPGQGLEWMGTIDPETGDTVYNQKFKARVTMTADKSTSTAYMELSSLRSEDTAVYYCTRAFYNDYDDGFAYWGQGTLVTVSS VL: EIVMTQSPATLSLSPGERATLSCSVSSSVSYMHWYQQKPGQAPRRLIYDTSKLASGIPARFSGSGSGTDYTLTISSLEPEDAAVYYCQQWNSSPLTFGGGTKVEIKR | IC50, inhibition of activation of KU812-NF-κB reporter gene by IL33 [2]: 0.0124 µg/mL; Maximum inhibition rate, KU812-NF-κB reporter gene [2]: 91.4%; Relative activity compared with CNTO7160, KU812-NF-κB reporter gene [2]: 1620% |
| 0.611 µg/mL | 90.7% | 187% | 5888-116-H3L1 (antibody, human IgG4 S228P, kappa, V domains shown) VH: QVQLVQSGAEVKKPGASVKVSCKASGYTFTDSEMYWVRQAPGQGLEWMGAIDPETGDTAFNQKFKGRVTMTADKSTSTAYMELSSLRSEDTAVYYCTRAFDNDNDDAFAYWGQGTMVTVSS VL: DIQMTQSPSSLSASVGDRVTITCSASSSVNYMHWYQQKPGKAPKRLIYDTSKLASGVPSRFSGSGSGTDYTFTISSLQPEDAATYYCQQWSSNPLTFGQGTKLEIKR | – |
| 1 µg/mL | 88% | 125% | 5886-156-H1L1 (antibody, human IgG4 S228P, kappa, V domains shown, Humanized antibody) VH: QVQLQESGPGLVKPSQTLSLTCTVSGYSITSDYAWNWIRQPPGKGLEWIGYIDYSGSTTYNPSLKSRVTISRDTSKNQFSLKLSSVTAADTAVYYCASTVIDSMDYWGQGTLVTVSS VL: DIVLTQSPASLAVSPGQRATITCRASKSVSTSGHSYMHWYQQKPGQPPKLLIYLASNLESGVPARFSGSGSGTDFTLTINPVEANDAANYYCQHSREFPFTFGQGTKVEIKR | IC50, inhibition of KU812-IL5 production promoted by IL-33 (human IL33-his) [3]: 0.0289 µg/mL; Maximum inhibition rate, KU812-IL5 production by IL-33 [3]: 95%; Relative activity compared with CNTO7160, KU812-IL5 production by IL-33 [3]: 222%; Kd [4]: 0.261 nM; koff [4]: 0.000377 s⁻¹; kon [4]: 1.45e+06 M⁻¹ s⁻¹ |
| 2.23 µg/mL | 92.4% | 56.2% | 5887-41-H1L1 (antibody, human IgG4 S228P, kappa, V domains shown) VH: QVQLQESGPGLVKPSQTLSLTCTVSGYSITSDYAWDWIRQPPGKGLEWIGYIRYSGDTYYNPSLKSRVTISRDTSKNQFSLKLSSVTAADTAVYYCATTMMDTMDYWGQGTLVTVSS VL: DIVLTQSPASLAVSPGQRATITCRASKSVSTSGNSYMHWYQQKPGQPPKLLIYLASNLESGVPARFSGSGSGTDFTLTINPVEANDAANYYCQHSREFPLTFGQGTKLEIKR | – |
| 0.0882 µg/mL | 88.3% | 1210% | 5887-537-H1L0 (antibody, human IgG4 S228P, kappa, V domains shown) VH: QVTLKESGPTLVKPTQTLTLTCTFSGFSLSTSGMGVGWIRQPPGKALEWLAHIWWDDVKQYNPALKSRLTITKDTSKSQVVLTMTNMDPVDTATYYCARIGGDYDYFDFWGQGTTVTVSS VL: DIVLTQSPASLAVSPGQRATITCRASESVEYSGTSLMQWYQQKPGQPPKLLIYVASNVESGVPARFSGSGSGTDFTLTINPVEANDTANYYCQQSRKVPWTFGQGTKLEIKR | – |
